Data on seven molecules can be found in patent publication US20240368267A1 (KODIAK SCIENCES, published 2024).

For orientation: Kd means the concentration at which binding is half-saturated. Low values mean a tighter complex, high ones a looser complex. By koff is commonly meant the first-order rate constant of dissociation. What is called kon is the rate constant with which the complex forms.

For this experiment, the target named is T1, human IL-6 (human, UniProt P05231 30-212).
T1 construct: also called interleukin-6
Description: SPR (Biacore T200), antibody from cell supernatant captured on Protein A, IL-6 flowed over, 37 C. The method, then:
Those four positions were selected based on their tolerance for mutations as observed in bacterial and mammalian screens. […] These cultures were centrifuged and supernatants containing secreted antibodies were harvested and diluted in HBS-EP+ running buffer (1:20 ratio).
Antibodies were captured on a Protein A chip (GE) by injecting 1:20 cell supernatant dilutions at 10 μL/min for 60 seconds. […] The sensor chip was regenerated by a 60 seconds injection of 10 mM Glycine pH 1.7 at the flow rate of […]. […] For this setup, 1 μg/mL of purified antibody was injected over a Protein A chip at 10 μL/min for 25 seconds. […] The sensor chip was regenerated by a 60 seconds injection of 10 mM Glycine pH 1.7 at flow rate of 50 μL/min. Data analysis for supernatant and purified samples were performed using BIAevaluation software (GE). All sensorgrams were double reference subtracted and fit using a 1:1 Langmuir binding model.
A general note: In SPR one partner is held on a chip, and binding of the other changes the refractive index at the surface.

T1 sequence (P05231 30-212 limits assumed): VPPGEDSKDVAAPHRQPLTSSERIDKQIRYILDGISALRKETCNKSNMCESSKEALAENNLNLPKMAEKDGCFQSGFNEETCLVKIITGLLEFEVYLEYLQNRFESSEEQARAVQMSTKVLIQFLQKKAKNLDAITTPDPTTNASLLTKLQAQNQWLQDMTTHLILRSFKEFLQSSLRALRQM

B1: anti-IL-6 antibody, heavy chain I51A, G66D / light chain WT (antibody, human IgG1, V domains shown)
VH: EVQLVESGGGLVQPGGSLRLSCAASGFTFSPFAMSWVRQAPGKGLEWVAKASPGGSWTYYSDTVTDRFTFSLDTSKSTAYLQMNSLRAEDTAVYYCARQLWGYYALDIWGQGTLVTVSS
VL: DIQLTQSPSSLSASVGDRVTITCSASISVSYMYWYQQKPGKAPKLLIYDMSNLASGVPSRFSGSGSGTDFTLTISSLQPEDFATYYCMQWSGYPYTFGQGTKVEIK
notes: Derived as m2; Engineered human IgG1
B1 showed an equilibrium dissociation constant (Kd) of 0.327 nM, a koff of 0.000576 s⁻¹ and a kon of 1.76e+06 M⁻¹ s⁻¹.

B2: anti-IL-6 antibody, heavy chain I51K, G66D / light chain WT (antibody, human IgG1, V domains shown)
VH: EVQLVESGGGLVQPGGSLRLSCAASGFTFSPFAMSWVRQAPGKGLEWVAKKSPGGSWTYYSDTVTDRFTFSLDTSKSTAYLQMNSLRAEDTAVYYCARQLWGYYALDIWGQGTLVTVSS
VL: DIQLTQSPSSLSASVGDRVTITCSASISVSYMYWYQQKPGKAPKLLIYDMSNLASGVPSRFSGSGSGTDFTLTISSLQPEDFATYYCMQWSGYPYTFGQGTKVEIK
notes: as for B1
On to B2, for which the dissociation constant Kd turned out to be 0.291 nM, the koff turned out to be 0.000402 s⁻¹ and the kon was determined as 1.38e+06 M⁻¹ s⁻¹.

B3: anti-IL-6 antibody, heavy chain I51F, G66D / light chain WT (antibody, human IgG1, V domains shown)
VH: EVQLVESGGGLVQPGGSLRLSCAASGFTFSPFAMSWVRQAPGKGLEWVAKFSPGGSWTYYSDTVTDRFTFSLDTSKSTAYLQMNSLRAEDTAVYYCARQLWGYYALDIWGQGTLVTVSS
VL: DIQLTQSPSSLSASVGDRVTITCSASISVSYMYWYQQKPGKAPKLLIYDMSNLASGVPSRFSGSGSGTDFTLTISSLQPEDFATYYCMQWSGYPYTFGQGTKVEIK
notes: as for B1
B3 gave a Kd of 2.24 nM, a koff of 0.00305 s⁻¹ and an on-rate (kon) of 1.36e+06 M⁻¹ s⁻¹.

B4: anti-IL-6 antibody, heavy chain I51D, G66D / light chain WT (antibody, human IgG1, V domains shown)
VH: EVQLVESGGGLVQPGGSLRLSCAASGFTFSPFAMSWVRQAPGKGLEWVAKDSPGGSWTYYSDTVTDRFTFSLDTSKSTAYLQMNSLRAEDTAVYYCARQLWGYYALDIWGQGTLVTVSS
VL: DIQLTQSPSSLSASVGDRVTITCSASISVSYMYWYQQKPGKAPKLLIYDMSNLASGVPSRFSGSGSGTDFTLTISSLQPEDFATYYCMQWSGYPYTFGQGTKVEIK
notes: as for B1
In turn, B4 came in with a Kd of 2.69 nM, a koff of 0.00267 s⁻¹ and an on-rate (kon) of 991000 M⁻¹ s⁻¹.

B5: anti-IL-6 antibody, heavy chain I51G, G66D / light chain WT (antibody, human IgG1, V domains shown)
VH: EVQLVESGGGLVQPGGSLRLSCAASGFTFSPFAMSWVRQAPGKGLEWVAKGSPGGSWTYYSDTVTDRFTFSLDTSKSTAYLQMNSLRAEDTAVYYCARQLWGYYALDIWGQGTLVTVSS
VL: DIQLTQSPSSLSASVGDRVTITCSASISVSYMYWYQQKPGKAPKLLIYDMSNLASGVPSRFSGSGSGTDFTLTISSLQPEDFATYYCMQWSGYPYTFGQGTKVEIK
notes: as for B1
The molecule B5 had a Kd of 0.428 nM, a koff of 0.000581 s⁻¹ and an association rate constant (kon) of 1.36e+06 M⁻¹ s⁻¹.

B6: anti-IL-6 antibody, heavy chain I51H, G66D / light chain WT (antibody, human IgG1, V domains shown)
VH: EVQLVESGGGLVQPGGSLRLSCAASGFTFSPFAMSWVRQAPGKGLEWVAKHSPGGSWTYYSDTVTDRFTFSLDTSKSTAYLQMNSLRAEDTAVYYCARQLWGYYALDIWGQGTLVTVSS
VL: DIQLTQSPSSLSASVGDRVTITCSASISVSYMYWYQQKPGKAPKLLIYDMSNLASGVPSRFSGSGSGTDFTLTISSLQPEDFATYYCMQWSGYPYTFGQGTKVEIK
notes: as for B1
Regarding B6, the equilibrium dissociation constant (Kd) was 0.348 nM, the off-rate (koff) is 0.000529 s⁻¹ and the kon amounted to 1.52e+06 M⁻¹ s⁻¹.

B7: anti-IL-6 antibody, heavy chain I51E, G66D / light chain WT (antibody, human IgG1, V domains shown)
VH: EVQLVESGGGLVQPGGSLRLSCAASGFTFSPFAMSWVRQAPGKGLEWVAKESPGGSWTYYSDTVTDRFTFSLDTSKSTAYLQMNSLRAEDTAVYYCARQLWGYYALDIWGQGTLVTVSS
VL: DIQLTQSPSSLSASVGDRVTITCSASISVSYMYWYQQKPGKAPKLLIYDMSNLASGVPSRFSGSGSGTDFTLTISSLQPEDFATYYCMQWSGYPYTFGQGTKVEIK
notes: as for B1
Turning to B7, the dissociation constant Kd turned out to be 1.01 nM, the off-rate constant (koff) came out at 0.00076 s⁻¹ and the kon is 754000 M⁻¹ s⁻¹.
